# Source: article PMC12102760 (2025)
# B1: Fab C1 (Fab, V domains shown)
# VH: EVQLVESGGGLVQPGGSLRLSCAASGFTIYYSSMHWVRQAPGKGLEWVASISSYYGYTYYADSVKGRFTISADTSKNTAYLQMNSLRAEDTAVYYCARYYAMDYWGQGTLVTVSS
# VL: DIQMTQSPSSLSASVGDRVTITCRASQSVSSAVAWYQQKPGKAPKLLIYSASSLYSGVPSRFSGSRSGTDFTLTISSLQPEDFATYYCQQYYGYGGYPITFGQGTKVEIK
# B2: Fab L1 (Fab, V domains shown)
# VH: EVQLVESGGGLVQPGGSLRLSCAASGFTISSSYIHWVRQAPGKGLEWVASISSYYGSTSYADSVKGRFTISADTSKNTAYLQMNSLRAEDTAVYYCARSHYSVWWGWHSVSYYAAFDYWGQGTLVTVSS
# VL: DIQMTQSPSSLSASVGDRVTITCRASQSVSSAVAWYQQKPGKAPKLLIYSASSLYSGVPSRFSGSRSGTDFTLTISSLQPEDFATYYCQQGSAPFTFGQGTKVEIK
# B3: Fab F1 (Fab, V domains shown)
# VH: EVQLVESGGGLVQPGGSLRLSCAASGFDSGAYLRHWVRQAPGKGLEWVASIYPSYGYTSYADSVKGRFTISADTSKNTAYLQMNSLRAEDTAVYYCARSAASYYGYWHWYHFSPGMDYWGQGTLVTVSS
# VL: DIQMTQSPSSLSASVGDRVTITCRASQSVSSAVAWYQQKPGKAPKLLIYSASDLYSGVPSRFSGSRSGTDFTLTISSLQPEDFATYYCQQYVSGGWLITFGQGTKVEIK
# Target: T1, EphA2 extracellular domain (ECD) (human, UniProt P29317 24-537)
# T1 sequence (P29317 24-537): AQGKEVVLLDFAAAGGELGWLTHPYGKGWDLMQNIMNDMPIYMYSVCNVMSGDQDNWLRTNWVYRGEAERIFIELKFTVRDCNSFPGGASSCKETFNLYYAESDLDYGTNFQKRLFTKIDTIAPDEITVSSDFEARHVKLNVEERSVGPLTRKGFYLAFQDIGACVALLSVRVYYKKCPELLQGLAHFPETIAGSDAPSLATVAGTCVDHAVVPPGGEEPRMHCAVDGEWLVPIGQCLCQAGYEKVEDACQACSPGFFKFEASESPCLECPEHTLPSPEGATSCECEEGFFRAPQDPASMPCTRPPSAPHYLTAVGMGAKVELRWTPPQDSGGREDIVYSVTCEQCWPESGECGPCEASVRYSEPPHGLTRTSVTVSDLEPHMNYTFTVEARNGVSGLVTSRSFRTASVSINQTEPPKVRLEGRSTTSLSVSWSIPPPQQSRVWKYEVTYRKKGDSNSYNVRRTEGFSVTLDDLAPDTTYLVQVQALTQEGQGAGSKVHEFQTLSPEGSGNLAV
# Test: SPR
row,Kd [nM],Binder
1,0.21,B1
2,0.44,B2
3,0.26,B3

# Target: T1, EphA2 extracellular domain (ECD)
# Test: SPR
# Remark: another data set of the same source
row,koff [s⁻¹],Binder
1,0.00019,B1
2,7.2e-05,B2
3,7.8e-05,B3
